Patent publication US20230110607A1 (IMMUNEONCO BIOPHARMACEUTICALS SHANGHAI, published 2023)

Target: T1, CD24 (human, UniProt P25063 27-59)
T1 construct: whole, on cells; For MCF-7 and REH cells it says only CD24+; also called human CD24; hCD24
T1 chain (looked up): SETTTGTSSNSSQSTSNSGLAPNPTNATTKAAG
Experiment: flow cytometry on CD24+ MCF-7 cells, FITC anti-human IgG-Fc secondary
Procedure: CD24⁺ MCF-7 cells in 100 μl culture medium at a cell density of 1×10⁶/ml were incubated with 100 μl serially diluted IMM47H and hIgG-Fc (3-fold dilution, starting at 30 μg/ml), respectively, at 4° C. for 1 h. Cells were washed with cold PBS twice, and then incubated with 100 μl FITC-conjugated secondary antibody against human IgG-Fc (Cat #F9512, Sigma) for 45 min. Cells were washed twice and re-suspended in 200 μl PBS. Then, the cells were subject to FACS analysis using a flow cytometer (Merck Millipore, Guava® easyCyte 5HT).

binding result: binds
B1: IMM47H (antibody, human IgG1, kappa, V domains shown)
VH: DVQLQESGPGLVKPSETLSLTCTVSGYSITSGYSWHWIRQPPGKGLEWIGYIHYSGSTKYNPSLKSRVTISVDTSKNQFSLKLSSVTAADTAVYYCARGADYALDYWGQRTSVTVSS
VL: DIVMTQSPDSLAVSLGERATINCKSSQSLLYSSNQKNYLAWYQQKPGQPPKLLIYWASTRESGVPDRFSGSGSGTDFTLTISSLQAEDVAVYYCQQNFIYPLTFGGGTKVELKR
notes: also called humanized anti-CD24 antibody
